Data reported in the nanobody polyreactivity screen of Harvey et al. (2022).

Test: yeast display, Sf9 membrane polyspecificity reagent, FACS + sequencing; frameworks hold sequencing errors
Method in brief: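 Synthetic nanobody libraries on Saccharomyces cerevisiae BJ5465 were galactose-induced for 36–48 hours, stained 1 hour at 4 °C with 10% biotinylated, detergent-solubilized Sf9 membrane reagent and enriched on streptavidin microbeads. FACS then separated cells into low and high (top ~1%) gates by anti-HA (expression) and streptavidin (reagent binding) fluorescence. Genes were colony-PCR amplified, MiSeq 2 × 250 sequenced and CDR-length filtered. A clone's polyreactivity label is that of its gate of origin.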

**Q.** For “QVQLVESGGGLVQAGGSLRLSCAASGSTFNHYAMGWYRQAPGKERELVAAITKSGGSTYADSVKGRFTISRDNAKNTVYIQMNSLKPEDTAVYYCAAGRRKYGTKGRGDYWGQGTQVTVSS”, which “polyreactivity (PSR sort gate)” value is on record?
**A.** Its value is “low polyreactivity”.

**Q.** For “QVQLVESGGGLVQAGGSLRLSCAASGSTFNINVMGWYRQAPGKERELVASISTGDITYYADSVKGRFTISRDNAKNTVYLQMNSLKPEDTAVYYCAAESYTGKYSWVWKWYDYWGQGTQVTVSS”, which “polyreactivity (PSR sort gate)” value is on record?
**A.** Its value is “low polyreactivity”.

**Q.** Which “polyreactivity (PSR sort gate)” value does the source give for “QVQLVESGGGLVQAGGSLRLSCAASGSTFNIYGMGWYRQAPGKERELVARISSGGSTYADSVKGRFTISRDNAKNTVYLQMNSLKPEDTAVYYCAAAAARTYRRYRYEGYYYWGQGTQVTVSS” here?
**A.** The value was “high polyreactivity”.

**Q.** For “QVQLVESGGGLVQAGGSLRLSCAASGSTFNKYAMGWYRPPPGKERELVAAISWTGGHTYYADSVKGRFTFSRDNAKNTVYLQMNSLKPEDTAVYYCNTVNSRPKYNYWGQGTQVTVSS”, which “polyreactivity (PSR sort gate)” value is on record?
**A.** The value was “high polyreactivity”.

**Q.** Which “polyreactivity (PSR sort gate)” value does the source give for “QVQLVESGGGLVQAGGSLRLSCAASGSTFNKYTMGWYRQAPGKERELVAAISRIGGSTYYADSVKGRFTISRDNAKNTVYLQMNSLKPEDTAVYYCAAPYPIGHDWGQGTQVTVSS” here?
**A.** The value was “low polyreactivity”.

**Q.** For “QVQLVESGGGLVQAGGSLRLSCAASGSTFNLYAMGWYRQAPGKERELVAAISGNGDRTYYADSVKGRFTISRDNAKNTVYLQMNSLKPEDTAVYYCAAKYYGWGQGTQVTVSS”, which “polyreactivity (PSR sort gate)” value is on record?
**A.** Its value is “high polyreactivity”.

**Q.** For “QVQLVESGGGLVQAGGSLRLSCAASGSTFNNAMGWYRQAPGKERELVAAITRSGVRTYYADSVKGRFTISRDNAKNTVYLQMNSLKPEDTAVYYCAAGFQSRRYYAGYEDWGQGTQVSVSS”, which “polyreactivity (PSR sort gate)” value is on record?
**A.** Its value is “high polyreactivity”.

**Q.** For “QVQLVESGGGLVQAGGSLRLSCAASGSTFNPYAMGWYRQAPGKERELLAAITWSSDDTYYADSVKGRFTISRDNAKNTVYLQMNSLKPEDTAVYYCAADVIGDLRWYGDEYWGQGTQVTESS”, which “polyreactivity (PSR sort gate)” value is on record?
**A.** Its value is “low polyreactivity”.

**Q.** Which “polyreactivity (PSR sort gate)” value does the source give for “QVQLVESGGGLVQAGGSLRLSCAASGSTFNQYTMGWYRQAPGKERELVAAISKSGGSTYYADSVKGRFTISRDNAKNTVYFQMNSLKPEVTAVYYCAADRYYDYRVDYWGQGTQVTVSS” here?
**A.** Its value is “high polyreactivity”.

**Q.** With “QVQLVESGGGLVQAGGSLRLSCAASGSTFNRNAMGWYRHAPGKERELVATISTGGVSTYYADSVKGRFTISRDNAKNTVYLQMNSLKPEDTAVYYCAKRTVYLSNLDYWGQGTQVTVSS” as the sequence, how does the “polyreactivity (PSR sort gate)” value read?
**A.** The value was “low polyreactivity”.

**Q.** With “QVQLVESGGGLVQAGGSLRLSCAASGSTFNRYAMGWYRPAPGKEWELVAAISGSNGGTDYADSVKGRFTISRDNAKNTVYLQMNSLKPEDTAVYYCAKVRAYTRLGLTVSMDYWGQGTQVTVSS” as the sequence, how does the “polyreactivity (PSR sort gate)” value read?
**A.** Its value is “high polyreactivity”.

**Q.** With “QVQLVESGGGLVQAGGSLRLSCAASGSTFNRYAMGWYRQAPGKERELVASISWGGGRTYYADSVKGRFTISRDNAKNTVYLQMNSLKPEDSAVYYCAAGGALASQWSTKLYDYWGQGTQVTVSS” as the sequence, how does the “polyreactivity (PSR sort gate)” value read?
**A.** The value was “low polyreactivity”.

**Q.** With “QVQLVESGGGLVQAGGSLRLSCAASGSTFNRYAMGWYRQAPGTERELVAAISGRGGSTYYADSVKGRFTISRDNAKNTVYLQMNSLKPEDTAVYYCAKLSYLHGTAREFRFDYWGQGTQVTVSS” as the sequence, how does the “polyreactivity (PSR sort gate)” value read?
**A.** The value was “high polyreactivity”.

**Q.** With “QVQLVESGGGLVQAGGSLRLSCAASGSTFNRYAMGWYRQEPGTERELVASIRISGGSTYYADSVKGRFTISRDNAKNTVYLQMNSLKPEDTAVYYCNAKLFIRWFTYDFLGQGTQVTVSS” as the sequence, how does the “polyreactivity (PSR sort gate)” value read?
**A.** Its value is “low polyreactivity”.

**Q.** With “QVQLVESGGGLVQAGGSLRLSCAASGSTFNSYAMGWYRQAPGKERELVAAITSSVGSTYYADSVKGRFTISRDNAKNTVYLQMNSLKPEDTAVYYCAADYFSYWYFSGYDYWGQGTQVTVSS” as the sequence, how does the “polyreactivity (PSR sort gate)” value read?
**A.** Its value is “low polyreactivity”.

**Q.** Which “polyreactivity (PSR sort gate)” value does the source give for “QVQLVESGGGLVQAGGSLRLSCAASGSTFNSYAMGWYRQAPGKERELVAAITSSVGSTYYADSVKGRFTISRDNAKYTVYLQMNSLKPEDTAVYYCAADYFSYWYFSGYDYWGQGTQVTVSS” here?
**A.** Its value is “low polyreactivity”.

**Q.** With “QVQLVESGGGLVQAGGSLRLSCAASGSTFNVYAMGWYRQAPGKERELVASIRTSGTRTYYADSVKGRFTISRDNAKNTVYLQMNSLKPEDTAVYYCNARYYSNLRRHGGYWGQGTQVTVSS” as the sequence, how does the “polyreactivity (PSR sort gate)” value read?
**A.** The value was “high polyreactivity”.

**Q.** Which “polyreactivity (PSR sort gate)” value does the source give for “QVQLVESGGGLVQAGGSLRLSCAASGSTFNYYAMGWYRQAPGKERELVAGITWRGRTYYADSVKGRFTISRDNAKNTVYLQMNSLKPEDTAVYYCAARQGTYGYWGQGTQVTVSS” here?
**A.** Its value is “high polyreactivity”.

**Q.** With “QVQLVESGGGLVQAGGSLRLSCAASGSTFPDNAMGWYRQAPGKERELVATITSGASTYYADSVKGRFTISRDNAKNTVYLQMNSLKPEDTAVYYCAVDVYFYYRHYGYWGQGTQVTVSS” as the sequence, how does the “polyreactivity (PSR sort gate)” value read?
**A.** The value was “low polyreactivity”.

**Q.** Which “polyreactivity (PSR sort gate)” value does the source give for “QVQLVESGGGLVQAGGSLRLSCAASGSTFPDYSKGWYRQAPGKERLLVADITYGGSSTYYADSVKGRFTISSDNAKNTVYLQMNSLKPDDTAVYYCAADTDYYTLIRSVLAYDYWGQGTQVTVSS” here?
**A.** Its value is “low polyreactivity”.

**Q.** Which “polyreactivity (PSR sort gate)” value does the source give for “QVQLVESGGGLVQAGGSLRLSCAASGSTFPDYVMGWYRQAPGKERELVAAISSIGGSTYYADSVKGRFTISRDKAKNTVYLQMNSLKPEDTAVYYCAAENSYFYPFDYWGQGTQVTVSS” here?
**A.** Its value is “low polyreactivity”.

**Q.** For “QVQLVESGGGLVQAGGSLRLSCAASGSTFPFNAMGWYRQAPGKERELVAGIRSRGGSTYYADSVKGRFTISRDNAKNTVYLQMNSLKPEDTAVYYCAKVYKDRDDLFYYWGQGTQVTVSS”, which “polyreactivity (PSR sort gate)” value is on record?
**A.** The value was “low polyreactivity”.

**Q.** With “QVQLVESGGGLVQAGGSLRLSCAASGSTFPFYALGWYRQAPGKERELVAVIRGSGGRTYYADSVKGRFTISRDNAKTTVYLQMNSLKPEDTAVYYCAVKLARLYDSGYNYWGQGTQVTVSS” as the sequence, how does the “polyreactivity (PSR sort gate)” value read?
**A.** The value was “high polyreactivity”.

**Q.** With “QVQLVESGGGLVQAGGSLRLSCAASGSTFPFYAMGWYRQAPGKERELVAAITSGGSTYADSVKGRFTISRDNAKNTVYLQMNSLKAEVTAVYYCAASWPRWWRFGYWGQGTQVSVSS” as the sequence, how does the “polyreactivity (PSR sort gate)” value read?
**A.** The value was “low polyreactivity”.

**Q.** With “QVQLVESGGGLVQAGGSLRLSCAASGSTFPFYAMGWYRQAPGKERELVAAITSGGSTYADSVKGRFTITRDNAKNTVYLQMNSLKPEDTSVYYCAASWPRWWRFGYWGQGTQVNVSS” as the sequence, how does the “polyreactivity (PSR sort gate)” value read?
**A.** Its value is “low polyreactivity”.

**Q.** With “QVQLVESGGGLVQAGGSLRLSCAASGSTFPGNAMGWYRQAPGKESELVASISGGGDSTYYADSVKGRFTISRDNAKNTVYLQMISLKPEDTAVYYCAADYRQEPGYTGYYYWGQGTQVTVSS” as the sequence, how does the “polyreactivity (PSR sort gate)” value read?
**A.** The value was “low polyreactivity”.

**Q.** Which “polyreactivity (PSR sort gate)” value does the source give for “QVQLVESGGGLVQAGGSLRLSCAASGSTFPGYAMGWYRQAPGKERELVAAGGSTYYADSVKGRFTISRDNAKNTVYLEMNCLKPEETAVYYCAATWGSVQKGTYYYWGQGTQVTVSS” here?
**A.** The value was “low polyreactivity”.

**Q.** With “QVQLVESGGGLVQAGGSLRLSCAASGSTFPGYAMGWYRQAPGKERELVAAISASGGSTYYADSVKGRFTISRDNAKNTVYLQMNSLKPEDTAVYYCAKVLSRGASADDYWGQGTQVTVSS” as the sequence, how does the “polyreactivity (PSR sort gate)” value read?
**A.** Its value is “low polyreactivity”.

**Q.** Which “polyreactivity (PSR sort gate)” value does the source give for “QVQLVESGGGLVQAGGSLRLSCAASGSTFPHYAMGWYRQAPGKERELVAAISWSGSSTYYADSVKGRFTISRDNAKNTVYLQMNSLKPEDTAVYYCNILPRRAPQFTYDYWGQGTQVTVSS” here?
**A.** Its value is “high polyreactivity”.

**Q.** Which “polyreactivity (PSR sort gate)” value does the source give for “QVQLVESGGGLVQAGGSLRLSCAASGSTFPINAMGWYRQAPGTERELVAAIDTNTASTYYADSVKGRFTISRDNAKNTVYLQMNSLKPEDTAVYYCAAEEWFYDGNVIYDWGQGTQVTVSS” here?
**A.** The value was “high polyreactivity”.
